Test results from patent US20240190985A1 (NEW YORK UNIVERSITY, published 2024).
Numbering of substitutions follows the chain as printed. Numbers in names are those of the source.

Columns and labels:
[1] = target: T1, CD99 endogenously expressed on cells (Jurkat, KOPT-K1) (human, UniProt P14209 23-185, O-linked glycosylation (natural, on cells)); experiment: flow cytometry titration on KOPT-K1 cells; apparent KD (FIG. 3B)
T1 construct: also called endogenously expressed CD99; CD99 on cells
T1 sequence: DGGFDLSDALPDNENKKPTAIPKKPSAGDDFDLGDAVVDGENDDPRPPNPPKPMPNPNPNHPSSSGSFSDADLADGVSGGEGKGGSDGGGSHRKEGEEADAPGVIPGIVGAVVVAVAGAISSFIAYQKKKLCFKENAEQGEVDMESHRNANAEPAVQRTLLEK

[2] = target: T1, CD99 endogenously expressed on cells …; experiment: cell-based or functional assay
[3] = target: T2, recombinant CD99 extracellular domain (fusion partner not given) (human, UniProt P14209 23-122); experiment: Western blot of recombinant CD99
T2 construct: also called CD99 ECD; human CD99; not shown: N-terminal 6xHis tag, AviTag, TEV site and a fusion partner (SUMO or GFP)
T2 sequence: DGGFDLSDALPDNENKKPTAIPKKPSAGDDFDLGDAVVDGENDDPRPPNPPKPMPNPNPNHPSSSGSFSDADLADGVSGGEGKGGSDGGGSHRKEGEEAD

[4] = target: T3, Glycoprotein Xg extracellular domain (human, UniProt P55808 22-142); experiment: binding of scFv-Fc to immobilized homolog ECDs (FIG. 1B)
T3 construct: extracellular domain
T3 sequence (looked up): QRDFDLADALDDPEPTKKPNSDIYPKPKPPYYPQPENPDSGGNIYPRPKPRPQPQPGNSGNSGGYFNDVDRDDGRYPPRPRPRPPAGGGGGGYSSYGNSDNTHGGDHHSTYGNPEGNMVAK

[5] = target: T4, CD99L2 extracellular domain (human, UniProt Q8TCZ2 26-185); experiment: as above
T4 construct: extracellular domain
T4 sequence (looked up): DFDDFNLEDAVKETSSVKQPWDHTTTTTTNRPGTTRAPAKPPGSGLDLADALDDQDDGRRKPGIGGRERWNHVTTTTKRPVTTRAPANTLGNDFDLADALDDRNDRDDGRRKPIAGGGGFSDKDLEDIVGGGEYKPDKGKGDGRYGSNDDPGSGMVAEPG

[6] = target: T5, mouse CD99 (mouse, UniProt Q8VCN6 29-137, limits assumed); experiment: binding of scFv-Fc to CD99 from different species (FIG. 1C)
T5 sequence (looked up): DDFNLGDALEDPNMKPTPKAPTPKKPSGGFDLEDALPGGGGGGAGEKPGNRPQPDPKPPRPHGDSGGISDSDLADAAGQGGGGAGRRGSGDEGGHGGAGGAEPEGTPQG

[7] = target: T1, CD99 endogenously expressed on cells …; experiment: flow cytometry on Jurkat cells (FIG. 1E)
[8] = target: T6, SAV-CD99 complex (biotinylated CD99 ECD tetramerized on streptavidin) (human, UniProt P22629 37-163 (Streptomyces avidinii entry), limits assumed, DyLight650 label; biotin on the AviTag); experiment: yeast display binding signal (FIG. 5E)
T6 construct: also called tetramerized CD99; tetramerized SUMO-CD99; not shown: N-terminal 6xHis tag, AviTag, TEV site and fusion partner

[9] = target: T1, CD99 endogenously expressed on cells …; experiment: flow cytometry titration on Jurkat cells (FIG. 1G)

T6 sequence (P22629 37-163 limits assumed, one chain of several): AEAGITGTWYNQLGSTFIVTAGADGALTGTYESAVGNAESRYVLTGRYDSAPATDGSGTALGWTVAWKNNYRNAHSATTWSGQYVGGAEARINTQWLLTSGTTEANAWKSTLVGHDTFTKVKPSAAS

B1: 10A1 IgG-E345R (antibody)
heavy: QVQLQQSGPVLVKPSQTLSLTCAISGDSISSDTTAWSWIRRSPSRGLEWLGWTYYRSKWFNYYAVSVKGRVTINPDTSKNQFSLQLSSVTPEDTAVYYCARGNGNGGMDVWGQGTTVTVSSASTKGPSVFPLAPSSKSTSGGTAALGCLVKDYFPEPVTVSWNSGALTSGVHTFPAVLQSSGLYSLSSVVTVPSSSLGTQTYICNVNHKPSNTKVDKKVEPKSCDKTHTCPPCPAPEAAGGPSVFLFPPKPKDTLMISRTPEVTCVVVDVSHEDPEVKFNWYVDGVEVHNAKTKPREEQYNSTYRVVSVLTVLHQDWLNGKEYKCKVSNKALGAPIEKTISKAKGQPRRPQVYTLPPSREEMTKNQVSLTCLVKGFYPSDIAVEWESNGQPENNYKTTPPVLDSDGSFFLYSKLTVDKSRWQQGNVFSCSVMHEALHNHYTQKSLSLSPGK
light: SYVLTQPASASVSPGQTARITCSGDALPKQYAYWYQQKPGQAPVLVIFKDSERPSGVPERFSGSSSGTTVTLTISGAQAEDEADYYCQSVDNSGFYQVFGGGTQLTVLRTVAAPSVFIFPPSDEQLKSGTASVVCLLNNFYPREAKVQWKVDNALQSGNSQESVTEQDSKDSTYSLSSTLTLSKADYEKHKVYACEVTHQGLSSPVTKSFNRGEC
notes: Valency of twelve as a hexamer; also called 10A1 E345R; 'inducible hexamer'
In the case of B1, the “fold higher KD than IgG-RGY, IgG-HCscFv and IgG” value [1] is reported as about 3 fold and the “IC50 of cytotoxicity (Annexin V, KOPT-K1 cells, 18 hours)” value [2] is reported as 299 nM Fv.

B2: 10A1 IgG-RGY (antibody)
heavy: B1 heavy with E434G, S444Y
light: B1 light
B2 was tested, and the “IC50 of cytotoxicity (Annexin V, KOPT-K1 cells, 18 hours)” value [2] was 442 nM Fv.

B3: clone 10 in the scFv-Fc format (Fc fusion)
chain: QVQLQQSGPVLVKPSQTLSLTCAISGDSVSSDTTAWSWIRQSPSRGLEWLGWTYYRSKWFNYYAVSVKSRVTINPDTSKNQFSLQLSSVTPEDTAVYYCARGNGNGGMDVWGQGTTVTVSSGILGSGGGGSGGGGSGGGGSSYVLTQPPSVSVSPGQTARITCSGDALPKQYAYWYQQKPGQAPVLVIFKDSERPSGIPERFSGSSSGTTVTLTISGVQAEDEADYYCQSADNSGFYQVFGGGTQLTVLSGSSSSLEGCKPCICTVPEVSSVFIFPPKPKDVLTITLTPKVTCVVVDISKDDPEVQFSWFVDDVEVHTAQTQPREEQFNSTFRSVSELPIMHQDWLNGKEFKCRVNSAAFPAPIEKTISKTKGRPKAPQVYTIPPPKEQMAKDKVSLTCMITDFFPEDITVEWQWNGQPAENYKNTQPIMDTDGSYFVYSKLNVQKSNWEAGNTFTCSVLHEGLHNHHTEKSLSHSPGKGGGGLNDIFEAQKIEWHESRHHHHHH
notes: also called Clone 10 scFv-Fc antibody
B3: binds [3]; no binding (tested: 600 nM Fv) [4]; no binding (tested: 600 nM Fv) [5].

B4: clone 30 in the scFv-Fc format (Fc fusion)
chain: EVQLLETGGGLVQPGGSLRLSCAASGFTFSSSAMHWVRQAPGKGLEWVAAISYDGSDTYYADSVKGRFTISRDNAKNTLYLQMNSLRDEDTAVYYCARDQVLGSGSLDYWGQGTLVTVSSGILGSGGGGSGGGGSGGGGSNFMLTQPHSVSESPGKTVTISCTRSSGSIGSYYVQWYQQRPGSPPTTVIYEDDKRPSGVPDRFSGSIDSSSNSASLTISGLKTEDEADYYCQSYDSSHVVFGGGTKLTVLSGSSSSLEGCKPCICTVPEVSSVFIFPPKPKDVLTITLTPKVTCVVVDISKDDPEVQFSWFVDDVEVHTAQTQPREEQFNSTFRSVSELPIMHQDWLNGKEFKCRVNSAAFPAPIEKTISKTKGRPKAPQVYTIPPPKEQMAKDKVSLTCMITDFFPEDITVEWQWNGQPAENYKNTQPIMDTDGSYFVYSKLNVQKSNWEAGNTFTCSVLHEGLHNHHTEKSLSHSPGKGGGGLNDIFEAQKIEWHESRHHHHHH
notes: The format mimics the bivalent IgG architecture
B4: binds [3]; no binding (tested: 1 µM Fv) [6]; no binding (tested: 600 nM Fv) [4]. B4: no binding (tested: 600 nM Fv) [5]; binds [7].

B5: clone 22 in the scFv-Fc format (Fc fusion)
chain: QVQLQQSGPGLVKPSQTLSLTCAISGDSVSSNSAAWNWIRQSPSRGLEWLGRTYYRSKWYNDYAVSVKSRITINPDTSKNQFSLQLNSVTPEDTAVYYCARGSYGSGLVWGQGTTVTVSSGSASAPTGILGSGGGGSGGGGSGGGGSNFMLTQPHSVSESPGKTVTISCTGSSGSIASNYVQWYQQRPGSAPTTVIYEDDQRPSGVPDRFSGSLDTSSNSASLTISGLRPEDEADYYCQSYDNKDNVVFGGGTKVTVLSGSSSSLEGCKPCICTVPEVSSVFIFPPKPKDVLTITLTPKVTCVVVDISKDDPEVQFSWFVDDVEVHTAQTQPREEQFNSTFRSVSELPIMHQDWLNGKEFKCRVNSAAFPAPIEKTISKTKGRPKAPQVYTIPPPKEQMAKDKVSLTCMITDFFPEDITVEWQWNGQPAENYKNTQPIMDTDGSYFVYSKLNVQKSNWEAGNTFTCSVLHEGLHNHHTEKSLSHSPGKGGGGLNDIFEAQKIEWHESRHHHHHH
notes: as for B4
B5: binds [3]; no binding (tested: 1 µM Fv) [6]; no binding (tested: 600 nM Fv) [4]. B5: no binding (tested: 600 nM Fv) [5]; binds [7].

B6: 10A1 with light chain D50 mutated to serine (yeast display format) (scFv, V domains shown)
VH: QVQLQQSGPVLVKPSQTLSLTCAISGDSISSDTTAWSWIRRSPSRGLEWLGWTYYRSKWFNYYAVSVKGRVTINPDTSKNQFSLQLSSVTPEDTAVYYCARGNGNGGMDVWGQGTTVTVSS
VL: SYVLTQPASASVSPGQTARITCSGDALPKQYAYWYQQKPGQAPVLVIFKSSERPSGVPERFSGSSSGTTVTLTISGAQAEDEADYYCQSVDNSGFYQVFGGGTQLTVL
notes: also called D50L to serine
B6: no binding (tested: 100 nM SAV-CD99 complex) [8].

B7: 10A1 with light chain D91 mutated to serine (yeast display format) (scFv, V domains shown)
VH: B6 VH
VL: B6 VL with S50D, D91S
notes: also called D91L to serine
B7: no binding (tested: 100 nM SAV-CD99 complex) [8].

B8: 10A1 in the scFv-Fc format (Fc fusion)
chain: QVQLQQSGPVLVKPSQTLSLTCAISGDSISSDTTAWSWIRRSPSRGLEWLGWTYYRSKWFNYYAVSVKGRVTINPDTSKNQFSLQLSSVTPEDTAVYYCARGNGNGGMDVWGQGTTVTVSSGILSGSSSSGSSSSGSSSSGYVLTQPASASVSPGQTARITCSGDALPKQYAYWYQQKPGQAPVLVIFKDSERPSGVPERFSGSSSGTTVTLTISGAQAEDEADYYCQSVDNSGFYQVFGGGTQLTVLSGSSSSLEGCKPCICTVPEVSSVFIFPPKPKDVLTITLTPKVTCVVVDISKDDPEVQFSWFVDDVEVHTAQTQPREEQFNSTFRSVSELPIMHQDWLNGKEFKCRVNSAAFPAPIEKTISKTKGRPKAPQVYTIPPPKEQMAKDKVSLTCMITDFFPEDITVEWQWNGQPAENYKNTQPIMDTDGSYFVYSKLNVQKSNWEAGNTFTCSVLHEGLHNHHTEKSLSHSPGKGGGGLNDIFEAQKIEWHESRHHHHHH
notes: Bivalent; also called 10A1 scFv-Fc
In the case of B8, the “fold improvement of apparent KD over Clone 10” value [9] is reported as 14 fold.
